B1: full length ADAR1 p110, wild type (FLAG-tagged and HA-tagged copies) [human] / itself (parent complex)
chain: MAEIKEKICDYLFNVSDSSALNLAKNIGLTKARDINAVLIDMERQGDVYRQGTTPPIWHLTDKKRERMQIKRNTNSVPETAPAAIPETKRNAEFLTCNIPTSNASNNMVTTEKVENGQEPVIKLENRQEARPEPARLKPPVHYNGPSKAGYVDFENGQWATDDIPDDLNSIRAAPGEFRAIMEMPSFYSHGLPRCSPYKKLTECQLKNPISGLLEYAQFASQTCEFNMIEQSGPPHEPRFKFQVVINGREFPPAEAGSKKVAKQDAAMKAMTILLEEAKAKDSGKSEESSHYSTEKESEKTAESQTPTPSATSFFSGKSPVTTLLECMHKLGNSCEFRLLSKEGPAHEPKFQYCVAVGAQTFPSVSAPSKKVAKQMAAEEAMKALHGEATNSMASDNQPEGMISESLDNLESMMPNKVRKIGELVRYLNTNPVGGLLEYARSHGFAAEFKLVDQSGPPHEPKFVYQAKVGGRWFPAVCAHSKKQGKQEAADAALRVLIGENEKAERMGFTEVTPVTGASLRRTMLLLSRSPEAQPKTLPLTGSTFHDQIAMLSHRCFNTLTNSFQPSLLGRKILAAIIMKKDSEDMGVVVSLGTGNRCVKGDSLSLKGETVNDCHAEIISRRGFIRFLYSELMKYNSQTAKDSIFEPAKGGEKLQIKKTVSFHLYISTAPCGDGALFDKSCSDRAMESTESRHYPVFENPKQGKLRTKVENGEGTIPVESSDIVPTWDGIRLGERLRTMSCSDKILRWNVLGLQGALLTHFLQPIYLKSVTLGYLFSQGHLTRAICCRVTRDGSAFEDGLRHPFIVNHPKVGRVSIYDSKRQSGKTKETSVNWCLADGYDLEILDGTRGTVDGPRNELSRVSKKNIFLLFKKLCSFRYRRDLLRLSYGEAKKAARDYETAKNYFKKGLKDMGYGNWISKPQEEKNFYLCPV

Variants of: B1
Assay: co-immunoprecipitation (anti-FLAG IP, anti-HA western blot, bands quantified with ImageJ); HEK293T cells; in the presence of RNases; n = 3; parent: 70; read off a plot

response [%]	Variant
~10	chain 1 V452A, chain 1 D453Q, chain 1 W473V, chain 1 C478S

Source: PMC11582362 (2023)
